Earlier results as cited in article PMC10584158.

Molecular target: IL-6 (Homo sapiens) (UniProt P05231)
Sequence (P05231 30-212): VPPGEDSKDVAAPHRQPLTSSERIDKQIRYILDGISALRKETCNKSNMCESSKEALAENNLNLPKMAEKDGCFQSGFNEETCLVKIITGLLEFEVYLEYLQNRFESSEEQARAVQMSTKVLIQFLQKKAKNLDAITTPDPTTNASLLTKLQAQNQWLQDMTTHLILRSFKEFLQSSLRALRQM

Q: Which Kd does the source give for Clazakizumab here?
A: 4 pM
